The record followed here is publication PMC13368180, “In silico design and validation of high-affinity RNA aptamers for SARS-CoV-2 comparable to neutralizing antibodies”.

To fix the notation:
B1: Ta (RBD-PB6-Ta) (structured_RNA)
RNA: GGCGACAUUUGUAAUUCCUGGACCGAUACUUCCGUCAGGACAGAGGUUGCCA
B2: TaC23U (structured_RNA)
RNA: GGCGACAUUUGUAAUUCCUGGAUCGAUACUUCCGUCAGGACAGAGGUUGCCA
B3: TaG34C (structured_RNA)
RNA: GGCGACAUUUGUAAUUCCUGGACCGAUACUUCCCUCAGGACAGAGGUUGCCA
B4: TaG34A (structured_RNA)
RNA: GGCGACAUUUGUAAUUCCUGGACCGAUACUUCCAUCAGGACAGAGGUUGCCA
B5: TaC23A (structured_RNA)
RNA: GGCGACAUUUGUAAUUCCUGGAACGAUACUUCCGUCAGGACAGAGGUUGCCA
B6: TaG34U (structured_RNA)
RNA: GGCGACAUUUGUAAUUCCUGGACCGAUACUUCCUUCAGGACAGAGGUUGCCA
B7: TaC23G (structured_RNA)
RNA: GGCGACAUUUGUAAUUCCUGGAGCGAUACUUCCGUCAGGACAGAGGUUGCCA

In the first data set the target is SARS-CoV-2 spike RBD (SARS-CoV-2, UniProt P0DTC2 319-541). In words: EMSA. Conditions: protein: commercial.
As for B1, the Kd worked out at 111 µM.

Molecule B2 yielded a Kd of 48.7 ± 2 µM.

As to B3, the Kd amounted to 33.5 ± 1.6 µM.

As to B4, the Kd came to 55.5 ± 4.1 µM.

As to B5, the Kd was 55.7 ± 9.8 µM.

Molecule B6 registered a Kd of 54.7 ± 2 µM.

B7 came in with a Kd of 168 µM.

Staying with this data set, now noted: protein: commercial; hairpin.
On to GGUCCUGGACCGAUACUUCCGUCAGGACCA (structured_RNA) [Tc (RBD-PB6-Tc)], for which the binding result is given as “no binding”.
